B1: library; numbered along this chain (parent)
chain: MAAAAAAAAEQQSSNGPVKKSMREKAVERRSVNKEHNSNFKAGYIPIDEDRLHKTGLRGRKGNLAICVIILLFILAVINLIITLVIWAVIRIGPNGCDSMEFHESGLLRFKQVSDMGVIHPLYKSTVGGRRNENLVITGNNQPIVFQQGTTKLSVENNKTSITSDIGMQFFDPRTQNILFSTDYETHEFHLPSGVKSLNVQKASTERITSNATSDLNIKVDGRAIVRGNEGVFIMGKTIEFHMGGNMELKAENSIILNGSVMVSTTRLPSSSSGDQLGSGDWVRYKLCMCADGTLFKVQVTSQNMGCQISDNPCGNTH

Variants of: B1
Assay: SGCB cell-surface expression functional score (HA stain, bin4 vs bin1, normalised to synonymous) (log10 ratio); higher = more cell-surface SGCB (functional)
Description: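 Deep mutational scan of full-length human SGCB (YFP-SGCB-HA, NNN codon sublibraries A-F) delivered by lentivirus at low MOI into ADG-HEK293 cells stably expressing SGCA, SGCD and SGCG. YFP-positive cells were stained for surface HA on unpermeabilized cells and FACS-sorted into bins. The functional score is log10(frequency in high bin 4 / frequency in low bin 1), normalised per chunk so that synonymous variants have mean 0 and SD 0.5. Scores are the median over codons and over duplicate biological replicates; scores below -0.5 are called non-functional. Scale: negative means deleterious.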

Variant	SGCB cell-surface expression functional score (log10)
V77N	-0.21
V77I	-0.12
V77M	0.2
V77P	-0.24
V77W	-0.2
V77K	-0.21
V77H	-0.48
V77R	-0.37
V77G	-0.14
V77D	0.07
V77F	0.04
V77L	-0.16
V77A	-0.12
V77T	-0.07
V77Y	-0.22
V77S	-0.06
V77Q	0.33
V77E	-0.04
V77C	-0.11
L72Q	-0.21
L72R	-0.09
L72T	0.45
L72K	-0.18
L72Y	-0.04

Variant	SGCB cell-surface expression functional score (log10)
L72P	-0.11
L72S	-0.07
L72W	0.28
L72M	0.13
L72N	-0.44
L72V	0.27
A76R	-0.35
A76N	0.08
A76I	0.22
A76S	0.05
A76F	0.33
A76V	0
A76M	-0.23
A76C	0.13
A76T	-0.35
A76D	-0.4
A76E	0.02
A76Q	0.3
A76P	-0.1
A76Y	0.25
A76W	0.14
A76L	0.08
A76G	-0.2
A76H	-0.07

Variant	SGCB cell-surface expression functional score (log10)
A76K	-0.81
L84D	-0.05
L84K	0.18
L84C	-0.21
L84I	0.01
L84F	-0.57
L84A	0
L84Y	-0.41
L84V	0.24
L84E	0.26
L84R	0.08
L84G	0.24
L84P	0.02
L84H	-0.4
L84W	0.4
L84S	0.09
L84Q	0.78
L84N	-0.44
L84T	0.17
L84M	0.1
I86T	-0.15
I86R	-0.77
I86K	-0.65
I86C	-0.24

Variant	SGCB cell-surface expression functional score (log10)
I86N	-0.75
I86V	0.32
I86F	-0.48
I86Q	-0.24
I86M	-0.18
I86W	-2.19
I86L	-0.35
I86D	-0.79
I86G	-0.59
I86S	-0.98
I86A	-0.08
I86P	-0.94
I86H	-1.91
I86Y	-0.61
I86E	-0.39
I90A	0.12
T83Y	-0.43
T83R	-0.49
T83G	0.04
T83M	0.14
T83Q	0.46
T83F	-0.77
T83D	-0.02
T83L	0.1

Variant	SGCB cell-surface expression functional score (log10)
T83E	-0.18
T83C	-0.51
T83W	-0.91
T83S	-0.2
T83V	-0.11
T83P	-0.3
T83N	0.2
T83H	-0.43
T83I	0.05
T83A	-0.17
T83K	-0.33
W87C	-0.23
W87F	0.33
W87T	-0.05
W87N	0.58
W87H	-0.27
W87L	-0.04
W87P	-0.55
W87S	0.18
W87A	-0.18
W87G	-0.12
W87M	0.4
W87D	0.08
W87I	0.48

Variant	SGCB cell-surface expression functional score (log10)
W87V	-0.45
W87Y	0
W87Q	0.02
W87E	-0.7
W87R	-0.12
W87K	0.25
V89F	-1.21
V89E	-0.95
V89L	-1.13
V89P	-0.88
V89C	0
V89H	-1.8
V89S	-0.41
V89I	-0.52
V89M	-0.96
V89T	-0.3
V89N	-2.05
V89D	-2.32
V89R	-0.63
V89K	0.02
V89A	-0.23
V89W	-1.16
V89Q	-1.44
V89Y	-1.29

Variant	SGCB cell-surface expression functional score (log10)
V89G	-0.36
L80D	-0.2
L80V	0.26
L80W	1.23
L80H	-0.14
L80K	-0.07
L80G	0.19
L80Q	-0.24
L80T	0.42
L80Y	0.27
L80M	0.32
L80R	-0.03
L80A	0.19
L80C	0.66
L80I	-0.01
L80P	-0.3
L80N	0.12
L80S	0.2
L80E	-0.1
L80F	-0.22
I74A	0
I74D	-0.26
I74G	0.2

Reference: the supplement of paper PMC10266784
